Reference: patent US20220144956A1 (published 2022)
Numbering of substitutions follows the chain as printed.

B1: H1 L1.12 XENP34575 (antibody, V domains shown)
VH: QLQVQESGPGLVKPSETLSLTCTVSGGSISNSYFSWGWIRQPPGKGLEWIGSFYYGEKTYYNPSLKSRATISIDTSKSQFSLKLSSVTAADTAVYYCPRGPTMIRGVIDSWGQGTLVTVSS
VL: EIVLTQSPATLSLSPGERATLSCRASQSVRTYLAWYQQKPGQAPRLLIYDASNRATGIPARFSGSGSGTDFTLTISSLEPEDFAVYYCQQRSNWPPTFGQGTKVEIK
B2: H1 L1.32 XENP34595 (antibody, V domains shown)
VH: B1 VH
VL: B1 VL with T31S, E79Q
B3: H1 L1.22 XENP34585 (antibody, V domains shown)
VH: B1 VH
VL: B1 VL with T31S, D50S
B4: H1 L1.42 XENP34605 (antibody, V domains shown)
VH: B1 VH
VL: B1 VL with T31S, S92G
B5: H1 L1.40 XENP34603 (antibody, V domains shown)
VH: B1 VH
VL: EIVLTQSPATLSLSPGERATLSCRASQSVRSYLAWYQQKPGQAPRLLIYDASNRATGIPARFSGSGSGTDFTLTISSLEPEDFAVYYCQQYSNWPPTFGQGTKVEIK
B6: H1 L1.36 XENP34599 (antibody, V domains shown)
VH: B1 VH
VL: B1 VL with T31S, R91E
B7: H1 L1.35 XENP34598 (antibody, V domains shown)
VH: B1 VH
VL: B1 VL with T31S, V85T
B8: H1 L1.9 XENP34572 (antibody, V domains shown)
VH: B1 VH
VL: B1 VL with R30Q, T31S
B9: H1 L1.44 XENP34607 (antibody, V domains shown)
VH: B1 VH
VL: B1 VL with T31S, S92T
B10: H1.19 L1 XENP34475 (antibody, V domains shown)
VH: B1 VH with S32G
VL: B1 VL with T31S
B11: H1.38 L1 XENP34494 (antibody, V domains shown)
VH: B1 VH with P42A
VL: B1 VL with T31S
B12: H1.16 L1 XENP34472 (antibody, V domains shown)
VH: B1 VH with N31Q
VL: B1 VL with T31S
B13: H1.12 L1 XENP34468 (antibody, V domains shown)
VH: B1 VH with N31E
VL: B1 VL with T31S
B14: H1.27 L1 XENP34483 (antibody, V domains shown)
VH: B1 VH with F34Y
VL: B1 VL with T31S
B15: H1.30 L1 XENP34486 (antibody, V domains shown)
VH: B1 VH with S35Y
VL: B1 VL with T31S
B16: H1.15 L1 XENP34471 (antibody, V domains shown)
VH: B1 VH with N31T
VL: B1 VL with T31S
B17: H1.7 L1 XENP34463 (antibody, V domains shown)
VH: B1 VH with T23A
VL: B1 VL with T31S
B18: H1.20 L1 XENP34476 (antibody, V domains shown)
VH: B1 VH with S32T
VL: B1 VL with T31S
B19: H1.24 L1 XENP34480 (antibody, V domains shown)
VH: B1 VH with Y33H
VL: B1 VL with T31S
B20: H1.36 L1 XENP34492 (antibody, V domains shown)
VH: B1 VH with G37S
VL: B1 VL with T31S
B21: H1.34 L1 XENP34490 (antibody, V domains shown)
VH: B1 VH with G37H
VL: B1 VL with T31S
B22: H1.28 L1 XENP34484 (antibody, V domains shown)
VH: B1 VH with S35A
VL: B1 VL with T31S
B23: H1.14 L1 XENP34470 (antibody, V domains shown)
VH: B1 VH with N31S
VL: B1 VL with T31S
B24: H1.6 L1 XENP34462 (antibody, V domains shown)
VH: B1 VH with E16Q
VL: B1 VL with T31S
B25: H1.21 L1 XENP34477 (antibody, V domains shown)
VH: B1 VH with Y33A
VL: B1 VL with T31S
B26: H1.32 L1 XENP34488 (antibody, V domains shown)
VH: B1 VH with W36M
VL: B1 VL with T31S
B27: H1.5 L1 XENP34461 (antibody, V domains shown)
VH: B1 VH with P9S
VL: B1 VL with T31S
B28: H1.8 L1 XENP34464 (antibody, V domains shown)
VH: B1 VH with G27Y
VL: B1 VL with T31S
B29: H1.10 L1 XENP34466 (antibody, V domains shown)
VH: B1 VH with I29V
VL: B1 VL with T31S
B30: H1.3 L1 XENP34459 (antibody, V domains shown)
VH: B1 VH with L2V, V4L
VL: B1 VL with T31S
B31: H1.13 L1 XENP34469 (antibody, V domains shown)
VH: B1 VH with N31G
VL: B1 VL with T31S
B32: H1.33 L1 XENP34489 (antibody, V domains shown)
VH: B1 VH with G37A
VL: B1 VL with T31S
B33: H1.31 L1 XENP34487 (antibody, V domains shown)
VH: B1 VH with W36I
VL: B1 VL with T31S
B34: H1.11 L1 XENP34467 (antibody, V domains shown)
VH: B1 VH with N31D
VL: B1 VL with T31S
B35: H1.2 L1 XENP34458 (antibody, V domains shown)
VH: B1 VH with L2V
VL: B1 VL with T31S
B36: H1.22 L1 XENP34478 (antibody, V domains shown)
VH: B1 VH with Y33D
VL: B1 VL with T31S
B37: H1.26 L1 XENP34482 (antibody, V domains shown)
VH: B1 VH with F34S
VL: B1 VL with T31S
B38: H1.4 L1 XENP34460 (antibody, V domains shown)
VH: B1 VH with V4L
VL: B1 VL with T31S
B39: H1.37 L1 XENP34493 (antibody, V domains shown)
VH: B1 VH with I39V
VL: B1 VL with T31S
B40: H1.25 L1 XENP34481 (antibody, V domains shown)
VH: B1 VH with F34H
VL: B1 VL with T31S
B41: H1.17 L1 XENP34473 (antibody, V domains shown)
VH: B1 VH with N31R
VL: B1 VL with T31S
B42: H1 L1 WT XENP28298 (antibody, V domains shown)
VH: B1 VH
VL: B1 VL with T31S
B43: H1.9 L1 XENP34465 (antibody, V domains shown)
VH: B1 VH with I29F
VL: B1 VL with T31S
B44: H1.29 L1 XENP34485 (antibody, V domains shown)
VH: B1 VH with S35T
VL: B1 VL with T31S
B45: H1.1 L1 XENP28299 (antibody, V domains shown)
VH: B1 VH with M103V
VL: B1 VL with T31S
B46: H1.18 L1 XENP34474 (antibody, V domains shown)
VH: B1 VH with S32A
VL: B1 VL with T31S
B47: H1.23 L1 XENP34479 (antibody, V domains shown)
VH: B1 VH with Y33G
VL: B1 VL with T31S

target: T1, human TGFßRII (antigen of the Octet experiments) (human, UniProt P37173 23-166); test: BLI (Octet)
T1 sequence (P37173 23-166): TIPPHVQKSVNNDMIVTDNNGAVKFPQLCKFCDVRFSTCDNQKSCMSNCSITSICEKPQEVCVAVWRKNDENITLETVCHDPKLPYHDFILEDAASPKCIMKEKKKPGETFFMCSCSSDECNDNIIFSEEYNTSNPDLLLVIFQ

Kd	Binder
0.539 nM	B1
1 nM	B2
0.782 nM	B3
2.94 nM	B4
23.1 nM	B5
59.3 nM	B6
0.344 nM	B7
16.4 nM	B8
2.03 nM	B9

target: T1, human TGFßRII (antigen of the Octet …); test: BLI (Octet); remark: another data set of the same source

Kd	Binder
0.836 nM	B10
0.325 nM	B11
0.407 nM	B12
0.374 nM	B13
0.809 nM	B14
5.9 nM	B15
0.0115 nM	B16
0.316 nM	B17
0.559 nM	B18
0.199 nM	B19
1.76 nM	B20
5.73 nM	B21
3.6 nM	B22
0.181 nM	B23
0.0242 nM	B24
0.455 nM	B25
2.47 nM	B26
0.245 nM	B27
0.238 nM	B28

Kd	Binder
0.182 nM	B29
0.001 nM	B30
1 nM	B31
0.414 nM	B32
7.28 nM	B33
0.419 nM	B34
0.001 nM	B35
1.97 nM	B36
0.273 nM	B37
0.128 nM	B38
0.391 nM	B39
0.415 nM	B40
0.292 nM	B41
0.001 nM	B42
0.496 nM	B43
1.79 nM	B44
0.325 nM	B45
0.205 nM	B46
0.767 nM	B47
